# Patent US10100341B2, “Tailored oils produced from recombinant oleaginous microorganisms” (Corbion Biotech, Inc., priority 2011, dated 2018)
# B1: Amt03-Ammonium transporter 03 promoter/5′UTR: putative nitrogen-regulated promoter/5′UTR, SEQ ID NO: 60 (nucleic acid, listed as Prototheca moriformis)
# DNA: GGCCGACAGGACGCGCGTCAAAGGTGCTGGGCGTGTATGCCCTGGTCGGCAGGTCGTTGCTGTTGCTGCGCTCGTGGTTCCGCAACCCTGATTTTGGCGTCTTATTCTGGCGTGGCAAGCGCTGACGCCCGCGAGCCGGGCCGGCGGCGATGCGGTGTCTCACGGCTGCCGAGCTCCAAGGGAGGCAAGAGCGCCCGGATCAGCTGAAGGGCTTTACACGCAAGGTACAGCCGCTCCTGCAAGGCTGCGTGGTGGACTTGAACCTGTAGGTCCTCTGCTGAAGTTCCTCCACTACCTCACCAGGCCCAGCAGACCAAAGCACAGGCTTTTCAGGTCCGTGTCATCCACTCTAAAACACTCGACTACGACCTACTGATGGCCCTAGATTCTTCATCAACAATGCCTGAGACACTTGCTCAGAATTGAAACTCCCTGAAGGGACCACCAGAGGCCCTGAGTTGTTCCTTCCCCCCGTGGCGAGCTGCCAGCCAGGCTGTACCTGTGATCGAGGCTGGCGGGAAAATAGGCTTCGTGTGCTCAGGTCATGGGAGGTGCAGGACAGCTCATGAAACGCCAACAATCGCACAATTCATGTCAAGCTAATCAGCTATTTCCTCTTCACGAGCTGTAATTGTCCCAAAATTCTGGTCTACCGGGGGTGATCCTTCGTGTACGGGCCCTTCCCTCAACCCTAGGTATGCGCGCATGCGGTCGCCGCGCAACTCGCGCGAGGGCCGAGGGTTTGGGACGGGCCGTCCCGAAATGCAGTTGCACCCGGATGCGCGGCGCCTTTCTTGCGATAATTTATGCAATGGACTGCTCTGCAAATTTCTGGGTCTGTCGCCAACCCTAGGATCAGCGGCGTAGGATTTCGTAATCATTCGTCCTGATGGGGAGCTACCGACTACCCTAATATCAGCCCGGCTGCCTGACGCCAGCGTCCACTTTTGCGTACACATTCCATTCGTGCCCAAGACATTTCATTGTGGTGCGAAGCGTCCCCAGTTACGCTCACCTGTTTCCCGACCTCCTTACTGTTCTGTCGACAGAGCGGGCCCACAGGCCGGTCGCAGCC
# B2: SugT Sugar transporter promoter/5′UTR: putative nitrogen-regulated promoter/5′UTR, SEQ ID NO: 59 (nucleic acid, listed as Prototheca moriformis)
# DNA: CCAGGCAGGCGGTAGGGTTGCCGATTGCTTGAGCGAATTGGAAGATATAATTTTTTGTGGTGTCCCTGGACGCTGTTTGTGGCGCTCCTTTTTGGAGAAGATTGCGTGGGGGAGCTTTCCATGTACCACGCTTCCTTCTGAAAGGATTCTGGCCGAGTCCTGATGAGCCCAAAGAAAACACCTGCCTTTCAGTGCTGGCACTCTGAAAACGTCAACAGATGATTATACATGTCACAAAAGGCAGCCGATTAGGAACGGGAGCTCTGGCCGTTCGTTTGGCTGCCTGGGCTGATTGAAGTGATCCACCCTGTTCGAATGAAGGCGGTCGAGTCGAATTATCGACCGGAGCTGTCGGGAAGGCGTCCGGGGCAGAGTGAGGTGCTGCGGCCTGGTTGTCGTTCAAAAAGACCCCGGTAGCCCAACAATCACGAACGAAAGGAATATAATTGCTTGCATACTATACATTCAGTTTCTATGTGGCGGGTAGACAAGTCTCATGGGCTTCTAAAGGCTGTCCCTTGAAGGCTACTTATAAAAACTTGCTGCGCCATGGCACGGATCGCGCTTGCGCAGGCTGCAACCCTGCGCGCAAGGTCAAATACACAGCAAAAGATACTAACAGAATTTCTAAAAACATTTAAATATTTGTTTCGACCAGCCAATTGTGGTCGTAGGCACGCAAAAGACTTTGTTTTGCGCCCACCGAGCATCCACGCTGGCAGTCAAGCCAGTCCGATGTGCATTGCGTGGCAGCATCGAGGAGCATCAAAAACCTCGTGCACGCTTTTCTGTCAATCATCATCAACCACTCCACCATGTATACCCGATGCATCGCGGTGCGCAGCGCGCCACGCGTCCCAGACCCGCCCAAAAACCCAGCAGCGGCGAAAGCAAATCTTCACTTGCCCGAAACCCCGAGCAGCGGCATTCACACGTGGGCGAAAACCCCACTTGCCCTAACAGGCGTATGTCTGCTGTCACGATGCCTGACAACGGTATTATAGATATACACTGATTAATGTTTGAGTGTGTGCGAGTCGCGAATCAGGAATGAATTGCTAGTAGGCACTCCGACCGGGCGGGGGCCGAGGGACCA
# B3: Aat01-Amino acid transporter 01 promoter/5′UTR: putative nitrogen-regulated promoter/5′UTR, SEQ ID NO: 62 (nucleic acid, listed as Prototheca moriformis)
# DNA: CGAAGGGGTCTGCATCGATTCGCGCGGTCTGGAGGCCAGCGTGACTGCTCGCGAAAATGCTCTGCCGTGTCGGGCTCTGGCTGGGGCGGCCAGAGATCTCACCGTGCCACACGCAACTGCCGCACTCTGTGCCCGCCACCTGGCGCGCACATGCGACCTCTTCCCCGTCATACCCTCTCCTCATGTGATCTTTCCACACGAGTGACGCAGGTGCGCGGAGTGGAGGGAATCAGGACGTTTTCAAGGTACCTGCTCGAGCCGTACCAACAGCTGCCGCCCGGCAAGGAAGAGATCGAGGCAGAGATTGCCCGGCTGGAGGCCCGGATAACGGAGCTCAAGAGCAAGCTGTCCGAGTGAGACCGCCCAGGTGCACGTGTCGACTCGCTATGACATGTACTCGACACAACATGAGGAATTCATCGAATTTGTAGGAAGCGGGCATTGGTACGGGAGTGGGAAAGCGAAAAAACCTCCCTCCGGCAGTGCCATCTGCCGGAGTCGAACGTTGATAGGGTTCTCGTGACAGGGTGTGACCTCTCAGCCTTGCATCAATTAAACGCTATAGACATTATCAGTAACCGTGAATCCCGCATTGGATGCCACCCGCGCGACCATTGGGGACCTGCATTACAGATCTAGGTGAGATGACAGCGAGGCAACTTCGGCCCGCGGCCCAGCTTGCGGCGCACCAATATTGGTCACGGGAAGCCACACACCGACCATAAATGAATACTTGTAAGCTATGTCAACCGATCAATGGCGTCGAAAGTGTGCCACGAGGATCCATCTGGCGGGGCGGCGTGGCGCACAAGCGCAGTCGCAATTTCTCGGACCCATCTGACCTAGGCCCAGCGCCGCGGGAGAAATCCCCGGCGGGTCCTCCACGCAGTAACCCTAATGAGTATCGAGCGCCGACCATTTACACCATCGCCCCCGAAATCCTTCCGACATTATTATTATCTTTTAGATCTTGGAACAGACTCTGCCAACC
# Tests used:
# [1] = tested on: Prototheca moriformis (UTEX 1435); experiment: cDNA abundance by real-time RT-PCR under nitrogen depletion; type: cell-based; conditions: after 24 hours of culture in low nitrogen medium
# Protocol: A cDNA library was generated from Prototheca moriformis (UTEX 1435) using standard techniques. The Prototheca moriformis cells were grown for 48 hours under nitrogen replete conditions. […] After about 24 hours in culture, the nitrogen supply in the media was completely depleted. The collected samples were immediately frozen using dry ice and isopropanol. Total RNA was subsequently isolated from the frozen cell pellet samples and a portion from each sample was held in reserve for RT-PCR studies. The rest of the total RNA harvested from the samples was subjected to polyA selection. Equimolar amounts of polyA selected RNA from each condition was then pooled and used to generate a cDNA library in vector pcDNA 3.0 (Invitrogen). Roughly 1200 clones were randomly picked from the resulting pooled cDNA library and subjected to sequencing on both strands. Approximately 68 different cDNAs were selected from among these 1200 sequences and used to design cDNA-specific primers for use in real-time RT-PCR studies. RNA isolated from the cell pellet samples that were held in reserve was used as substrate in the real time RT-PCR studies using the cDNA-specific primer sets generated above. This reserved RNA was converted into cDNA and used as substrate for RT-PCR for each of the 68 gene specific primer sets. […] As discussed in the specification, nitrogen depletion/limitation is a known inducer of lipogenesis in oleaginous microorganisms. Fold increase refers to the fold increase in cDNA abundance after 24 hours of culture in low nitrogen medium.
# [2] = tested on: Prototheca moriformis (UTEX 1435); experiment: Steady state thioesterase mRNA level by real-time RT-PCR (promoter testing, normalized to cd189); conditions: low nitrogen medium
Molecule,Fold increased (cDNA abundance) [1],steady state C. camphora thioesterase mRNA level relative to control (C. reinhardtii beta tubulin promoter) [2]
B1,10.1,
B2,17.35,
B3,6.21,up to four
